T1: NIN(520-878)-myc (C-ter) (Lotus japonicus) (UniProt Q9S7B1)
T1 sequence: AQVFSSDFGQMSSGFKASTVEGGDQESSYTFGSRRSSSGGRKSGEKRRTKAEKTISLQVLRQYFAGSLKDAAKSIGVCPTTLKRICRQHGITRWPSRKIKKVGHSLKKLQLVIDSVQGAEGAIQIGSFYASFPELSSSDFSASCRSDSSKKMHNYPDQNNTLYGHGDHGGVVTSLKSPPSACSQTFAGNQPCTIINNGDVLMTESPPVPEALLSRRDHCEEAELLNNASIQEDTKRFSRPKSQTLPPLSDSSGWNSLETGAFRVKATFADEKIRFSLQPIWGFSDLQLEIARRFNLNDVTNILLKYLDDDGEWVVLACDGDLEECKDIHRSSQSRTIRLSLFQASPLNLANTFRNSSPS

T2: NIN-myc (Full) (Lotus japonicus) (UniProt Q9S7B1)
T2 sequence: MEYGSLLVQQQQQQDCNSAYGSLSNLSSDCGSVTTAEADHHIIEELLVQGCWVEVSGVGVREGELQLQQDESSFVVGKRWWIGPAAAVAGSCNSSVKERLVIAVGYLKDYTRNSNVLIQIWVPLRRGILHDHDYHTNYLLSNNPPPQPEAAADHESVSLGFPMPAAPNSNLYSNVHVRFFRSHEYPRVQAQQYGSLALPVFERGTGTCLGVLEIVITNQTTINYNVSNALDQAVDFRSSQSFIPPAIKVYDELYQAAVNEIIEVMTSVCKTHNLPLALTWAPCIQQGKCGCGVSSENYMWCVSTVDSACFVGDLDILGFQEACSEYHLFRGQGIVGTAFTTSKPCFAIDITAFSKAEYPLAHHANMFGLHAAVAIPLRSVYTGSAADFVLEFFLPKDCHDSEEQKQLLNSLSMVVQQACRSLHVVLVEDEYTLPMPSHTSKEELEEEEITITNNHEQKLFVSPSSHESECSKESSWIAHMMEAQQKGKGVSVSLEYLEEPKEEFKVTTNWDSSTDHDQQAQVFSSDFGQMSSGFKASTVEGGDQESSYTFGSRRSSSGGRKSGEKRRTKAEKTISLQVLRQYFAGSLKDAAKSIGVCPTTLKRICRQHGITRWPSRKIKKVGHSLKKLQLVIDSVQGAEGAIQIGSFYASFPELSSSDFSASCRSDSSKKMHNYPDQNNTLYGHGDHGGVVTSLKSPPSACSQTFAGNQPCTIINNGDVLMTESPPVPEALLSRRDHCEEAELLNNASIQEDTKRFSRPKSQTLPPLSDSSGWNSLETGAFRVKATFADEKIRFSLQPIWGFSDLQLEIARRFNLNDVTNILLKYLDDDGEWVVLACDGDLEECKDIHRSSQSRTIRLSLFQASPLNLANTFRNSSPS

B1: NBS-yB1a m14 (dsDNA)
DNA 1: TACTTGTATCTTTAGAGCTTTCCAAGGGTATTTTC
DNA 2: GAAAATACCCTTGGAAAGCTCTAAAGATACAAGTA
B2: NBS-yB1a m8 (dsDNA)
DNA 1: TACTTGTATCAAAAGAGCTTTCCAAGGGATATTTC
DNA 2: GAAATATCCCTTGGAAAGCTCTTTTGATACAAGTA
B3: probe 14 m5 (dsDNA)
DNA 1: AAACCCCATCAATTTACTTGTATCTTTAGAGCTTTCCAACCCTATTTTC
DNA 2: GAAAATAGGGTTGGAAAGCTCTAAAGATACAAGTAAATTGATGGGGTTT
B4: probe 14 m3 (dsDNA)
DNA 1: AAACCCCATCAATTTACTTGTTAGAAAAGAGCTTTCCAAGGGATATTTC
DNA 2: GAAATATCCCTTGGAAAGCTCTTTTCTAACAAGTAAATTGATGGGGTTT
B5: NBS-yB1a m13 (dsDNA)
DNA 1: TACTTGTATCTTTAGAGCTTTCCAACCCATATTTC
DNA 2: GAAATATGGGTTGGAAAGCTCTAAAGATACAAGTA
B6: NBS-yB1a m12 (dsDNA)
DNA 1: TACTTGTATCTTTAGAGCTTTCGTTGGGATATTTC
DNA 2: GAAATATCCCAACGAAAGCTCTAAAGATACAAGTA

Assays:
[1] = biological target: T1, NIN(520-878)-myc (C-ter) (Lotus japonicus); assay: EMSA; conditions: 20 mM Hepes-KOH pH 7.9, 50 mM KCl, 1 mM MgCl2, 1 mM DTT, 4% glycerol, 0.1% Triton X-100, 2 ug BSA, 400 ng dIdC, 20 ul, 30 min at room temperature; 10-30 fmol …
[2] = biological target: T2, NIN-myc (Full) (Lotus japonicus); assay: EMSA; conditions: 20 mM Hepes-KOH pH 7.9, 50 mM KCl, 1 mM MgCl2, 1 mM DTT, 4% glycerol, 0.1% Triton X-100, 2 ug BSA, 400 ng dIdC, 20 ul, 30 min at room temperature; 10-30 fmol …
[3] = biological target: NIN(520-878)-myc (C-ter) (Lotus japonicus, UniProt Q9S7B1 520-878); assay: EMSA; 20 mM Hepes-KOH pH 7.9, 50 mM KCl, 1 mM MgCl2, 1 mM DTT, 4% glycerol, 0.1% Triton X-100, 2 ug BSA, 400 ng dIdC, 20 ul, 30 min at room temperature; 10-30 fmol 32P probe; conditions: protein: ivt, tags: myc

Molecule	binding [1]	binding result ([3]; label: 32P)	also measured
AAAGAGTGAAGATGAATATGAAATATCCCTTGGAAAGCTCTAAAG (double strand) [LjNF-YB1 probe 13]	no binding	–	–
GAGAAAATGCTAGTTTTTAAAAAGAGAACCTTTATTTTTTTAAATATTGTATTTACGAAGAAAACTGAAAAAGAACAGATGATTTCAGTTAGATTGCTTGGCCCCCTTCTTATCTGGACAGGCATTTTCCTG (double strand) [LjNF-YA1 probe 9]	binds	–	binding [2]: binds
GGCCTTTGAGGCCGCTCAAAAGAGTGAAGATGAATATGAAAT (double strand) [LjNF-YB1 probe 12]	no binding	–	–
GTTAATGGATGCTGAGAAGGCCTTTGAGGCCGCTCAAAAGAGTGAAGATGAATATGAAATATCCCTTGGAAAGCTCTAAAG (double strand) [LjNF-YB1 probe 9]	binds	–	binding [2]: binds
TACAATTCTTTACTTTCAATACAAAAAACCCCATCAATTTACTTGTATCTTTAG (double strand) [LjNF-YB1 probe 15]	no binding	–	–
TCACTTTGGTGGATGTGGATATACAATTCTTTACTTTCAATACAAAAAACC (double strand) [LjNF-YB1 probe 16]	no binding	–	–
TCACTTTGGTGGATGTGGATATACAATTCTTTACTTTCAATACAAAAAACCCCATCAATTTACTTGTATCTTTAGAGCTTTCCAAGGGATATTTC (double strand) [LjNF-YB1 probe 10]	binds	–	binding [2]: binds
TCTTTTGAGCGGCCTCAAAGGCCTTCTCAGCATCCATTAAC (double strand) [LjNF-YB1 probe 11]	no binding	–	–
B1	–	no binding	–
B2	–	no binding	–
B3	–	no binding	–
B4	–	no binding	–
B5	–	no binding	–
B6	–	–	binding result ([3]; label: 32P as probe): no binding

— paper PMC3605141, “NODULE INCEPTION Directly Targets NF-Y Subunit Genes to Regulate Essential Processes of Root Nodule Development in Lotus japonicus”
